B1: protein H of Streptococcus pyogenes, COOH-terminally truncated fragment expressed by and purified from E. coli (305 amino acids) (other)
chain: EGAKIDWQEEYKKLDEDNAKLVEVVETTSLENEKLKSENEENKKNLDKLSKENQGKLEKLELDYLKKLDHEHKEHQKEQQEQEERQKNQEQLERKYQREVEKRYQEQLQKQQQLETEKQISEASRKSLSRDLEASRAAKKDLEAEHQKLEAEHQKLKEDKQISDASRQGLSRDLEASRAAKKELEANHQKLEAEHQKLKEDKQISDASRQGLSRDLEASRAAKKELEANHQKLEAEAKALKEQLAKQAEELAKLRAGKASDSQTPDTKPGNKAVPGKGQAPQAGTKPNQNKAPMKETKRQLPSTG
notes: 42-346 is the same stretch counted from the first Met of the entry; Depending on the assay, protein H was coupled to CNBr-Sepharose, labelled with 125I (Bolton-Hunter), biotinylated or unlabelled; also called recombinant protein H; soluble protein H
B2: COOH-terminal fragment of NPM, in vitro translated and 35S-methionine-labelled (other)
chain: GSKVPQKKVKLAADEDDDDDDEEDDDEDDDDDDFDDEEAEEKAPVKKSIRDTPAKNAQKSNQNGKDSKPSSTPRSKGQESFKKQEKTPKTPKGPSSVEDIKAKMQASIEKGGSLPKVEAKFINYVKNCFRMTDQEAIQDLWQWRKSL
modifications: 35S-methionine label
notes: domain: COOH-terminal half; also called COOH-terminal peptide; COOH-terminal half of NPM

Key:
[1] = target: actin from porcine heart (Sigma) (porcine, UniProt B6VNT8 3-377); assay: SPR (BIACORE X), protein H over immobilised actin; mean ± SD of three experiments
[2] = target: B1; assay: Affinity chromatography of the 35S-labelled in vitro translated peptide on protein H-Sepharose, then SDS-PAGE and autoradiography

| Binder | Ka [1] | Kd [1] | koff [1] | kon [1] | binding result [2] |
| --- | --- | --- | --- | --- | --- |
| B1 | 1.7e+06 M⁻¹ | 600 nM | 0.0015 s⁻¹ | 2500 M⁻¹ s⁻¹ | – |
| B2 | – | – | – | – | no binding |

Source: patent US6833355 (HANSA MEDICAL, dated 2004)
